Consider three molecules from patent US20210079071A1.

In assay [1] the target is T1, Staphylocoagulase peptide SC(1-10), …, unconjugated (Staphylococcus aureus). Nature of the assay: ELISA: purified GMA-2105 on unconjugated …, A490. (In general: An ELISA detects its analyte on a solid surface through an enzyme-linked reagent.)
Assay [2] deals with Staphylocoagulase peptide SC(1-10) conjugated to ovalbumin (Staphylococcus aureus). The experiment in a line: ELISA: purified GMA-2105 on SC peptide-ovalbumin conjugate, A490.
For assay [3], the target named is T1, Staphylocoagulase peptide SC(1-10), …, …. The experiment in a line: ELISA: GMA-2105 F(ab) on wells coated with …, A490.
Assay [4] has as its target GMA-2105 murine anti-staphylocoagulase monoclonal antibody.

B1: GMA-2105 murine anti-staphylocoagulase monoclonal antibody (antibody, V domains shown)
VH: EVKLEESGGGLVQPGGSMKLSCAASGFTFSDAWMDWVRQSPEKGLEWVAEIRTKANNHATYYAESVKGRFTISRDDSKSSVYLQMNSLRAEDTGIYYCTNVYYGNNDVKDYWGQGTSVTVSPAS
VL: DIVMTQSQKFMSTSVGDRVSVTCKASQNVDIYVAWYQQKPGQSPKALIYSASYRFSGVPDRFTGSGSGTDFTLSISNVQSEDLAEYFCQQYNNYPYTFGGGTKLEIKRADAAPTVSIFPPSSEGRI
On to B1, for which the results for the EC50 (read off the curve) in assay [1] and in assay [2] were 0.05 µg/mL and 0.03 µg/mL, respectively.

B2: GMA-2105 F(ab) fragment (Fab, V domains shown)
VH: EVKLEESGGGLVQPGGSMKLSCAASGFTFSDAWMDWVRQSPEKGLEWVAEIRTKANNHATYYAESVKGRFTISRDDSKSSVYLQMNSLRAEDTGIYYCTNVYYGNNDVKDYWGQGTSVTVSPAS
VL: DIVMTQSQKFMSTSVGDRVSVTCKASQNVDIYVAWYQQKPGQSPKALIYSASYRFSGVPDRFTGSGSGTDFTLSISNVQSEDLAEYFCQQYNNYPYTFGGGTKLEIKRADAAPTVSIFPPSSEGRI
For the molecule B2, the EC50 (read off the curve) – broadly, the concentration needed to bring the measured effect to its halfway point – in assay [3] is 0.1 µg/mL.
For IVTKDYSKES (modifications not checked) [Staphylocoagulase peptide SC(1-10), …, unconjugated], the IC50 (read off the curve) in assay [4] is 2 nM.
